Measured values from patent US20240294601A1.

Columns and labels:
DMF5 T cell receptor [1] = test: flow cytometry, tetramer titration on Jurkat T-cells transduced with DMF5
DMF5 T cell receptor [2] = test: flow cytometry, barcoded tetramer library on Jurkat/MA cells transduced with DMF5

Q: What does the source list for “MART-1/HLA-A*02:01 tetramer (from UniProt P61769 21-119) (peptide-MHC)”?
A: fold improvement in EC50 relative to photo-exchanged tetramers (DMF5 T cell receptor [1]): 2.6 fold; percent of cells stained (DMF5 T cell receptor [2]): 33%
